Assays:
[1] = molecular target: T1, His-FLNBC (human, UniProt O75369 2105-2602); assay: pull-down; pre-cleared E. coli extracts (250 µl) with GST-PC2N or GST-PC2C incubated with purified His-FLN C-terminus (2 µg); 150 mM NaCl, 1.0 mM CaCl2, 50 mM Tris pH 7.5, room temperature; glutathione-agarose beads; immunoblot with anti-His; conditions: one partner purified
T1 construct: Filamin-B, human, C-terminus aa 2105-2602; also called His-tagged FLNBC; not shown: His tag, N-terminal, kept
T1 sequence (looked up): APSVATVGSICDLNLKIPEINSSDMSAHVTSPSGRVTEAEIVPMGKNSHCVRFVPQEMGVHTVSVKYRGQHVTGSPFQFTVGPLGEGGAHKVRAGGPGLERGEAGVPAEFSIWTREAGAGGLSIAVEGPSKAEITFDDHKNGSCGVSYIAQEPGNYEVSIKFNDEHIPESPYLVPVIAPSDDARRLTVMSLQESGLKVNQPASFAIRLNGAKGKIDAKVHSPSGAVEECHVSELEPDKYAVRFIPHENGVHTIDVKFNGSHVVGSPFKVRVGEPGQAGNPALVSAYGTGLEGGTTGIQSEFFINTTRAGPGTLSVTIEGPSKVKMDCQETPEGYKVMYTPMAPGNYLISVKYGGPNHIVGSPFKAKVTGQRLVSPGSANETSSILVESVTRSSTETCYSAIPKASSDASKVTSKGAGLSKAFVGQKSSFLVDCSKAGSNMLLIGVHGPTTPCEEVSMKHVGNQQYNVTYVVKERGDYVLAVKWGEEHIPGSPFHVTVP

[2] = molecular target: T2, His-FLNCC (human, UniProt Q14315 2144-2725); assay: as above; conditions: one partner purified
T2 construct: Filamin-C, human, C-terminus aa A2144-P2725; also called His-tagged FLNCC; not shown: His tag, N-terminal, kept
T2 sequence (looked up): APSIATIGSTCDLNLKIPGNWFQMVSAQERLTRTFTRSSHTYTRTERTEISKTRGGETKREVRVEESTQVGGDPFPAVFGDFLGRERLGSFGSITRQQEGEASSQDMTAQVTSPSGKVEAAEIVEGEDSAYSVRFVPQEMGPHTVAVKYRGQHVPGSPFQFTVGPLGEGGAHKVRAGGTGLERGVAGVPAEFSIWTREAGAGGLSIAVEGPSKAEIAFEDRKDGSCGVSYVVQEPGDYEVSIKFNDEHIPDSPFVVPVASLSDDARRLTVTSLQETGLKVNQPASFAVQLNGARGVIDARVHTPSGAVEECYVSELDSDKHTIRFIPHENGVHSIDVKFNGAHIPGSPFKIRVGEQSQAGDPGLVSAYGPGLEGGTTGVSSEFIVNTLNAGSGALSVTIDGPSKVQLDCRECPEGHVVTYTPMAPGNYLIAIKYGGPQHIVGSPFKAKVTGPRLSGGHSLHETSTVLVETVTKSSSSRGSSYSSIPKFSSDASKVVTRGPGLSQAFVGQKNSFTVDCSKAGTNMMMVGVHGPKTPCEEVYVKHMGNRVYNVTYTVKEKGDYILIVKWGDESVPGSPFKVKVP

[3] = molecular target: T3, His-FLNAC (human, UniProt P21333 2150-2647); assay: as above; conditions: one partner purified
T3 construct: Filamin-A, human, C-terminus aa 2150-2647; also called His-tagged FLNAC; not shown: His tag, N-terminal, kept
T3 sequence (looked up): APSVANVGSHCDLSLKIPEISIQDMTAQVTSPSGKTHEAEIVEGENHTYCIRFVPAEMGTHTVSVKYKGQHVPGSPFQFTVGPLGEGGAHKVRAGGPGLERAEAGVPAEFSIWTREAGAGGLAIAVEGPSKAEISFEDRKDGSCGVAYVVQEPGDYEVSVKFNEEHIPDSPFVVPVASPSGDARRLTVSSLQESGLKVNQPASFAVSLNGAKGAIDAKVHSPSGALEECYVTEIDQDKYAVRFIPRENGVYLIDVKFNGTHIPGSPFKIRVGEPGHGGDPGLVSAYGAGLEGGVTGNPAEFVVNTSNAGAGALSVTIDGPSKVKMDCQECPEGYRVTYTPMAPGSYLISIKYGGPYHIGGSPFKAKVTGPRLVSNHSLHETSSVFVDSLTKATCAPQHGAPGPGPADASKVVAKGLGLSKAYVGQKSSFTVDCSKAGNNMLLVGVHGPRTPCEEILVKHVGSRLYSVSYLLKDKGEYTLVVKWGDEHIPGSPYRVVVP

[4] = molecular target: T3, His-FLNAC; assay: pull-down; purified GST fusion protein (2 µg) incubated with purified His-FLN C-terminus (2 µg); 150 mM NaCl, 1.0 mM CaCl2, 50 mM Tris pH 7.5, room temperature; glutathione-agarose beads; immunoblot with anti-His; conditions: both partners purified

Measured: binding result

B1: GST-PC2C (domain or fragment, human, UniProt Q13563 682-968, looked up)
chain: DTYSEVKSDLAQQKAEMELSDLIRKGYHKALVKLKLKKNTVDDISESLRQGGGKLNFDELRQDLKGKGHTDAEIEAIFTKYDQDGDQELTEHEHQQMRDDLEKEREDLDLDHSSLPRPMSSRSFPRSLDDSEEDDDEDSGHSSRRRGSISSGVSYEEFQVLVRRVDRMEHSIGSIVSKIDAVIVKLEIMERAKLKRREVLGRLLDGVAEDERLGRDSEIHREQMERLVREELERWESDDAASQISHGLGTPVGLNGQPRPRSSRPSSSQSTEGMEGAGGNGSSNVHV
notes: Polycystin-2, human, C-terminus PC2C, amino acids 682-968; in pGEX5X; also called GST-tagged PC2C; source: E. coli BL21 (DE3), in lysate; also purified (commercial GST purification kit)
binds: [1] | [2] | [3]

B2: GST-PC2N (domain or fragment, human, UniProt Q13563 1-215, looked up)
chain: MVNSSRVQPQQPGDAKRPPAPRAPDPGRLMAGCAAVGASLAAPGGLCEQRGLEIEMQRIRQAAARDPPAGAAASPSPPLSSCSRQAWSRDNPGFEAEEEEEEVEGEEGGMVVEMDVEWRPGSRRSAASSAVSSVGARSRGLGGYHGAGHPSGRRRRREDQGPPCPSPVGGGDPLHRHLPLEGQPPRVAWAERLVRGLRGLWGTRLMEESSTNREK
notes: Polycystin-2, human, N-terminus PC2N, amino acids 1-215; in pGEX5X; also called GST-tagged PC2N; source: E. coli BL21 (DE3), in lysate; also purified (commercial GST purification kit)
binds: [4] | [1] | [2]
